Changes are numbered by the printed parent chain. Names may count otherwise.
Substrate: CCOC(N)=O
Experiment: purified protein
Format: biochemical, Lysinibacillus fusiformis
Details: free enzyme, EC 0-300 mM, activity assay at 37 °C, pH not stated

B1: EC hydrolase (ethyl carbamate hydrolase) (Lysinibacillus fusiformis; H68A/K70R/S325N) (protein)
chain: MTTDLHLKSVEELAPLLASKSLSPVELTKAILDFAEESQPKINSYMAFYREEALARAKEVEQEILQGAYRGMYHGIPMALKDNLYFKDKITTMSSKIHKDFVSDYDATVVEKLRDAGVIFTGKLSMHEYAWGITNNNPHYGPVRNPWDLDKIPGGSSGGSGAAVAAGASVASLGTDTAGSIRIPSSACGIVGLKPTHGRVSKYGCYPLAWSLDHIGPMTKTVKDAAGLLEVIAGFDHQDPTCVNVPVDNYEKQLTGNIKDLVIGINEEYFFNNVDADVEKAVRASIQSLVDSGAKVEVVRIPSLQYAEWAELVTSLSEAAAIHHNDLQKRPQDFGDDIRLLFELGELPSAVDYLQAQQVRRQIKQEFTEIFNKVDVLISPTLPIVASTIGDDFAELNGQKVDLIDNIIRFTGPSNLTGLPALSVPCGFKGNLPIGLQIIGPAFKEGRILNVGYAVEQANPQRNRKPNIFANI
For B1, the Km was 28.2 ± 4.41 mM.

B2: EC hydrolase (ethyl carbamate hydrolase) (Lysinibacillus fusiformis) (protein)
chain: B1 chain with A68H, R70K, N325S
B2 was tested, and the Km was 37.67 ± 3.55 mM.

B3: EC hydrolase (ethyl carbamate hydrolase) (Lysinibacillus fusiformis; S325N) (protein)
chain: B1 chain with A68H, R70K
Work on B3 yielded a Km of 45.52 ± 9.41 mM.

B4: EC hydrolase (ethyl carbamate hydrolase) (Lysinibacillus fusiformis; H68A) (protein)
chain: B1 chain with R70K, N325S
For B4, the Km was 31.38 ± 5.61 mM.

B5: EC hydrolase (ethyl carbamate hydrolase) (Lysinibacillus fusiformis; K70R) (protein)
chain: B1 chain with A68H, N325S
Protein B5 has a Km of 33.38 ± 5.67 mM.

B6: EC hydrolase (ethyl carbamate hydrolase) (Lysinibacillus fusiformis; A178L) (protein)
chain: B1 chain with A68H, R70K, A178L, N325S
B6 was tested, and the Km was 96.78 ± 6.09 mM.

B7: EC hydrolase (ethyl carbamate hydrolase) (Lysinibacillus fusiformis; H68A/S325N) (protein)
chain: B1 chain with R70K
B7 showed a Km of 33.27 ± 2.31 mM.

B8: EC hydrolase (ethyl carbamate hydrolase) (Lysinibacillus fusiformis; K70R/S325N) (protein)
chain: B1 chain with A68H
For B8, the Km was 40.82 ± 3.56 mM.

Reference: PMC10017909, “Improving ethanol tolerance of ethyl carbamate hydrolase by diphasic high pressure molecular dynamic simulations” (AMB Express, 2023)
